Residue numbers refer to the chain shown, from its start. Names and notes keep the numbering of the source.

Consider 14 molecules from article PMC3834829, “A signature motif mediating selective interactions of BCL11A with the NR2E/F subfamily of orphan nuclear receptors” (Nucleic Acids Research, 2013).

One assay concerns the target AAD-LRH-1-LBD-(133–495) (UniProt O00482). The assay is described as follows: yeast two-hybrid. The note with it: parent: est. 1100; read off a plot.
Another assay concerns the target LexA-BCL11A RID1 R317A (UniProt Q9H165). The assay is described as follows: two-hybrid; S. cerevisiae L40; LexA DBD fusion with VP16 AAD-NR fusion; β-galactosidase activity in cell-free extracts; vehicle only or no ligand.
In another assay the target is LexA-BCL11A RID1 R320A (UniProt Q9H165). Described as above.
Assay [1] addresses T1, LexA-COUP-TFII-LBD-(144–414) (UniProt P24468 144-414).
T1 construct: the bait copy of the LBD in the dimer assay; same residues as m19; also called wild-type COUP-TFII LBD; full-length LBD; source: yeast two-hybrid fusion (S. cerevisiae L40)
T1 sequence (looked up): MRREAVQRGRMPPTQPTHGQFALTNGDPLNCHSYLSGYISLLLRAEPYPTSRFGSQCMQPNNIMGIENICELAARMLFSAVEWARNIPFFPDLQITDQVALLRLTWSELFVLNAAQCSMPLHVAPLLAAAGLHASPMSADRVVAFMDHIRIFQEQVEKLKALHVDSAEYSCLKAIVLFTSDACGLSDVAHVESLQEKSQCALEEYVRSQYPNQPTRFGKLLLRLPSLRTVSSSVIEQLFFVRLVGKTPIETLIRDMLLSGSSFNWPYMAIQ
Described as above. Conditions: partners not purified.

The target of a further assay is LexA-BCL11A RID1 F315A (UniProt Q9H165). Described as above.

AAD-LRH-1-LBD-(133–495), sequence (O00482 133-495): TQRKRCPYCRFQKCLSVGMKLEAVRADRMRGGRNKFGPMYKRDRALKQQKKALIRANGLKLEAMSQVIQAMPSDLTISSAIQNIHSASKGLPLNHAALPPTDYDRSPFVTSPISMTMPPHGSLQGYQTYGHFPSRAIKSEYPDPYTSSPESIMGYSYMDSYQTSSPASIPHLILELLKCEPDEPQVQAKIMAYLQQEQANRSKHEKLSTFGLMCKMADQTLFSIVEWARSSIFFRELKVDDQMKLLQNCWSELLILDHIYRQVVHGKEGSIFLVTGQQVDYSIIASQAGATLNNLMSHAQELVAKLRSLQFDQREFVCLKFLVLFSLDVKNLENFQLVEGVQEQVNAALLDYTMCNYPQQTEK

Turning to LexA-NSD1-(790–818) D812A, the response with AAD-LRH-1-LBD-(133–495) came out at 660 nmol/mg/min.
Still for that read-out and setting: the result for LexA-NSD1-(790–818) F803A reads 310 nmol/mg/min.
The same measure, in the same setting: for LexA-NSD1-(790–818) K802A the value was 1300 nmol/mg/min; for LexA-NSD1-(790–818) K811A, 710 nmol/mg/min; for LexA-NSD1-(790–818) L806A, 0 nmol/mg/min.
On the same count and under the same terms, for LexA-NSD1-(790–818) L807A the value was 470 nmol/mg/min; for LexA-NSD1-(790–818) L810A, 0 nmol/mg/min; for LexA-NSD1-(790–818) M808A, 900 nmol/mg/min.
Take LexA-NSD1-(790–818) M809A: in the assay with AAD-LRH-1-LBD-(133–495), the response came out at 0 nmol/mg/min.
Still for that read-out and setting: the result for LexA-NSD1-(790–818) S804A reads 0 nmol/mg/min; that for LexA-NSD1-(790–818) Y801A, 690 nmol/mg/min.

B1: AAD-COUP-TFII-LBD-(144–414) (domain or fragment)
chain: T1 sequence (looked up)
As for B1, the fold lower reporter activity than wild-type RID1 with LexA-BCL11A RID1 R317A and in the assay with LexA-BCL11A RID1 R320A was 5 fold each time.

B2: AAD-COUP-TFII-LBD V224A (domain or fragment, UniProt P24468 144-414, looked up)
chain: T1 sequence (looked up) with V81A
notes: expressed at a 2-fold lower level than the other constructs of the series; also called V224A mutant; source: yeast two-hybrid fusion (S. cerevisiae L40)
For the molecule B2, in assay [1], the “fold reduction of reporter activation due to homodimer formation” value is ~2.5 fold.

B3: AAD-EAR2-LBD-(121–399) (domain or fragment)
chain: MRKEAVQRGRIPHSLPGAVAASSGSPPGSALAAVASGGDLFPGQPVSELIAQLLRAEPYPAAAGRFGAGGGAAGAVLGIDNVCELAARLLFSTVEWARHAPFFPELPVADQVALLRLSWSELFVLNAAQAALPLHTAPLLAAAGLHAAPMAAERAVAFMDQVRAFQEQVDKLGRLQVDSAEYGCLKAIALFTPDACGLSDPAHVESLQEKAQVALTEYVRAQYPSQPQRFGRLLLRLPALRAVPASLISQLFFMRLVGKTPIETLIRDMLLSGSTFNWP
B3 had a fold lower reporter activation than wild-type RID1 in the assay with LexA-BCL11A RID1 F315A of 2 fold.
